Settings in all cases: remark: other sources report otherwise
For test [1], the target named is HER3, P21860. Kind of test: kinetic binding data, method not stated.
The target of test [2] is HER3, P21860. Put plainly: kinetic binding data, method not stated. This is another data set of the same source.
The next test has as its target Her3-his, P21860. Put plainly: SPR. For orientation: In SPR one partner is held on a chip, and binding of the other changes the refractive index at the surface.

B1: Her3 antibody patritumab (antibody, V domains shown)
VH: QVQLQQWGAGLLKPSETLSLTCAVYGGSFSGYYWSWIRQPPGKGLEWIGEINHSGSTNYNPSLKSRVTISVETSKNQFSLKLSSVTAADTAVYYCARDKWTWYFDLWGRGTLVTVSS
VL: not shown
As for B1, the Kd in the test with HER3, P21860 [1] came to 30.2 pM; in the test with HER3, P21860 [2] it was 900 pM; with Her3-his, P21860, 1280 pM.

What is called Kd is the free concentration of one partner at which half of the binding sites on the other are occupied at equilibrium, for simple one-to-one binding. High values mean a looser complex, low ones a tighter complex.

For the origin of these results see patent US20190233517A1.
